Experimental findings from patent US20060193821 are described below.

The target of data set [1] is IL-23 (human, p19/p40 heterodimer) (Homo sapiens) (UniProt Q9NPF7+P29460). Kind of data set: filter.
Data set [2] deals with IL-12 (human, p35/p40 heterodimer) (Homo sapiens) (UniProt P29459+P29460). The experiment in a line: filter.
IL-12 (human, p35/p40 heterodimer) (Homo sapiens), sequence (P29459 23-219, chain 1 of 2): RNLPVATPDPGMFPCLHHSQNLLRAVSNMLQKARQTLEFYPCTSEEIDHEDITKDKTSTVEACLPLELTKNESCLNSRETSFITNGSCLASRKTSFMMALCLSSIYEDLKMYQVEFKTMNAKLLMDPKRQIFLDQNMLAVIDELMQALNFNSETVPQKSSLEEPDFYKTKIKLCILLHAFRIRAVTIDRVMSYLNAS
IL-12 (human, p35/p40 heterodimer) (Homo sapiens), sequence (P29460 23-328, chain 2 of 2): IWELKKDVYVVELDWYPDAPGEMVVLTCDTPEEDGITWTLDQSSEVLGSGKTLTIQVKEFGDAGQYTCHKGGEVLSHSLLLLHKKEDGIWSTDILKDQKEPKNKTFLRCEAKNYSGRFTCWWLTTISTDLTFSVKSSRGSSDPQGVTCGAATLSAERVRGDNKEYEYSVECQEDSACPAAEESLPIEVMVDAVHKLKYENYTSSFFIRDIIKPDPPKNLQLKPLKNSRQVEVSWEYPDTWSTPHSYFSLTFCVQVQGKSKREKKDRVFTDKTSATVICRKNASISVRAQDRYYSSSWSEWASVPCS

IL-23 (human, p19/p40 heterodimer) (Homo sapiens), sequence (Q9NPF7 20-189, chain 1 of 2): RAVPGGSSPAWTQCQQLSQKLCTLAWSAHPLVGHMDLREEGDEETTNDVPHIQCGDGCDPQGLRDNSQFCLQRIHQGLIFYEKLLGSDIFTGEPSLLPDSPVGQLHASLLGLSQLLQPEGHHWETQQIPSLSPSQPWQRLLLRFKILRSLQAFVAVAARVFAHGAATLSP
IL-23 (human, p19/p40 heterodimer) (Homo sapiens), sequence (P29460 23-328, chain 2 of 2): as the sequence (P29460 23-328, chain 2 of 2) above

As to “ACAGGCAAGUAAUUGGGGAGUGCGGGCGGGGUGU [ARC1603]”, the Kd (commonly the free concentration of one partner at which half of the binding sites on the other are occupied at equilibrium, for simple one-to-one binding) in data set [1] (deoxy A,G, 2'-OMe C,U, dI at G20, 3'-idT [20], DPBS Ca Mg) stood at 1.6 nM. In data set [1] (2'-OMe C,U, DPBS Ca Mg), “GGGAGAGGAGAGAACGUUCUACGGAAGGNAACAANAGCACUGUUUGUGCAGGCGCUGUCGAUCNAUCNAUCNAUG [rRmY clone SEQ 85]” gave a Kd of 240 nM. In the case of “ACAGGCAAGUAAUUGGGGAGUGCGGGCGGGGUGU [ARC1593]”, the Kd in data set [1] (deoxy A,G, 2'-OMe C,U, dI at G4,G5, 3'-idT [dI at 4,5 (parent G), 2'-OMe C,U at 2,6,10,13,14,21,23,27,32,34, deoxy A,G elsewhere, 3'-inverted dT at 35], DPBS Ca Mg) came out at 13.8 nM. On to “ACAGGCAAGUAAUUGGGGAGUGCGGGCGGGGUGU [ARC1613]”, for which the Kd in data set [1] (deoxy A,G, 2'-OMe C,U, dI at G30, 3'-idT [dI at 30 (G parent), 2'-OMe C/U at 2,6,10,13,14,21,23,27,32,34, other A,G deoxy, 3'-inverted dT at 35], DPBS Ca Mg) was 2.3 nM. “ACAGGCAAGUAAUUGGGGAGUGCGGGCGGGGUGU [ARC1606]” yielded a Kd in data set [1] (deoxy A,G, 2'-OMe C,U, dI at G25, 3'-idT [25], DPBS Ca Mg) of 5 nM. Turning to “ACAGGCAAGUAAUUGGGGAGUGCGGGCGGGGUGU [ARC1615]”, the Kd in data set [1] (deoxy A,G, 2'-OMe C,U, dI at G28,G29, 3'-idT [dI at 28,29 (G parent), 2'-OMe C/U at 2,6,10,13,14,21,23,27,32,34, other A,G deoxy, 3'-inverted dT at 35], DPBS Ca Mg) is 5.8 nM.

As for “ACAGGCAAGUAAUUGGGGAGUGCGGGCGGGGUGU [ARC1594]”, the Kd in data set [1] (deoxy A,G, 2'-OMe C,U, dI at G9, 3'-idT [dI at 9 (parent G), 2'-OMe C,U at 2,6,10,13,14,21,23,27,32,34, deoxy A,G elsewhere, 3'-inverted dT at 35], DPBS Ca Mg) was 4.2 nM. Take “ACAGGCAAGUAAUUGGGGAGUGCGGGCGGGGUGU [ARC1619]”: the Kd in data set [1] (deoxy A,G, 2'-OMe C,U, dI at G33, 3'-idT [dI at 33 (G parent), 2'-OMe C/U at 2,6,10,13,14,21,23,27,32,34, other A,G deoxy, 3'-inverted dT at 35], DPBS Ca Mg) was 2.8 nM.

For “ACAGGCAAGUAAUUGGGGAGUGCGGGCGGGGUGU [ARC1604]”, the Kd in data set [1] (deoxy A,G, 2'-OMe C,U, dI at G22, 3'-idT [22], DPBS Ca Mg) was 2.1 nM. In data set [1] (deoxy A,G, 2'-OMe C,U, dI at G17,G18, 3'-idT [17,18], DPBS Ca Mg), “ACAGGCAAGUAAUUGGGGAGUGCGGGCGGGGUGU [ARC1601]” registered a Kd of 4.4 nM. Turning to “ACAGGCAAGUAAUUGGGGAGUGCGGGCGGGGUGU [ARC1599]”, in data set [1] (deoxy A,G, 2'-OMe C,U, dI at G15,G16, 3'-idT [15,16], DPBS Ca Mg), the dissociation constant (Kd) was found to be 7.2 nM. In turn, “ACAGGCAAGUAAUUGGGGAGUGCGGGCGGGGUGU [ARC1466]” had a Kd in data set [1] (deoxy A,G, 2'-OMe C,U, PEG spacers between stem 1 strands and core, 3'-idT, DPBS Ca Mg) of 1.9 nM.

Turning to “ACAGGCAAGUAAUUGGGGAGUGCGGGCGGGGUGU [ARC1592]”, the Kd in data set [1] (deoxy A,G, 2'-OMe C,U, dI at G5, 3'-idT [dI at 5 (parent G), 2'-OMe C,U at 2,6,10,13,14,21,23,27,32,34, deoxy A,G elsewhere, 3'-inverted dT at 35], DPBS Ca Mg) is 8.1 nM. On to “ACAGGCAAGUAAUUGGGGAGUGCGGGCGGGGUGU [ARC1602]”, for which, in data set [1] (dRmY, deoxyinosine at G15-G18, 3'-idT [deoxyinosine at 15-18 (parent base G written), 2'-deoxy purines, 2'-OMe C/U (2,6,10,13,14,21,23,27,32,34), 3'-inverted dT at 35], dot blot, DPBS with Ca and Mg, 0.1 mg/mL BSA, 30 min RT), the Kd amounted to 40.8 nM. Turning to “ACAGGCAAGUAAUUGGGGAGUGCGGGCGGGGUGU [ARC1600]”, in data set [1] (deoxy A,G, 2'-OMe C,U, dI at G16,G17, 3'-idT [16,17], DPBS Ca Mg), the dissociation constant Kd is 15.6 nM. “ACAGGCAAGUAAUUGGGGAGUGCGGGCGGGGUGU [ARC1612]”: the Kd in data set [1] (deoxy A,G, 2'-OMe C,U, dI at G29, 3'-idT [dI at 29 (G parent), 2'-OMe C/U at 2,6,10,13,14,21,23,27,32,34, other A,G deoxy, 3'-inverted dT at 35], DPBS Ca Mg) came to 1.9 nM. As for “GGGAAAAGCGAAUCAUACACAAGAGGUUGAGUACGACGGAGUCNUGGCUAACACGGAAACUAGAGCUCCGCCAGAGACCAACCGAGAA [AMX86-B9]”, the dissociation constant Kd was 23.7 nM in data set [1] (2'-F C,U, SHMCK, tRNA) and 848 nM in data set [2] (2'-F C,U, tRNA). Consider “ACAGGCAAGUAAUUGGGGAGUGCGGGCGGGGUGU [ARC1595]”, for which the Kd in data set [1] (deoxy A,G, 2'-OMe C,U, dI at G15, 3'-idT [dI at 15 (parent G), 2'-OMe C,U at 2,6,10,13,14,21,23,27,32,34, deoxy A,G elsewhere, 3'-inverted dT at 35], DPBS Ca …) worked out at 5.4 nM. On to “ACAGGCAAGUAAUUGGGGAGUGCGGGCGGGGUGU [ARC1618]”, for which the Kd in data set [1] (dRmY, deoxyinosine at G28-G31, 3'-idT [deoxyinosine at 28-31 (parent base G written), 2'-deoxy purines, 2'-OMe C/U (2,6,10,13,14,21,23,27,32,34), 3'-inverted dT at 35], dot blot, DPBS with Ca and Mg, 0.1 mg/mL BSA, 30 min RT) came out at 34 nM. Turning to “GGGAAAAGCGAAUCCUACCCAAGAUGUUGUUGGCGUUGAUCGUAUGAUUNAUGGAGNGUGUCNGUGCUCCGCCAGAGACCAACCGAGAA [AMX86-E7]”, the Kd in data set [1] (2'-F C,U, SHMCK, tRNA) is 210 nM; in data set [2] (2'-F C,U, tRNA) it was 268 nM. “ACAGGCAAGUAAUUGGGGAGUGCGGGCGGGGUGU [ARC1608]” came in with a Kd in data set [1] (deoxy A,G, 2'-OMe C,U, dI at G24,G25, 3'-idT [24,25], DPBS Ca Mg) of 9.7 nM. In the case of “ACAGGCAAGUAAUUGGGGAGUGCGGGCGGGGUGU [ARC1611]”, the dissociation constant (Kd) in data set [1] (deoxy A,G, 2'-OMe C,U, dI at G28, 3'-idT [dI at 28 (G parent), 2'-OMe C/U at 2,6,10,13,14,21,23,27,32,34, other A,G deoxy, 3'-inverted dT at 35], DPBS Ca Mg) was 1.7 nM. For “ACAGGCAAGUAAUUGGGGAGUGCGGGCGGGGUGU [ARC1610]”, the Kd in data set [1] (deoxy A,G, 2'-OMe C,U, dI at G24-G26, 3'-idT [dI at 24,25,26 (G parent), 2'-OMe C/U at 2,6,10,13,14,21,23,27,32,34, other A,G deoxy, 3'-inverted dT at 35], DPBS Ca Mg) is 5.2 nM. On to “ACAGGCAAGUAAUUGGGGAGUGCGGGCGGGGUGU [ARC1614]”, for which the Kd in data set [1] (deoxy A,G, 2'-OMe C,U, dI at G31, 3'-idT [dI at 31 (G parent), 2'-OMe C/U at 2,6,10,13,14,21,23,27,32,34, other A,G deoxy, 3'-inverted dT at 35], DPBS Ca Mg) came out at 1.7 nM. Regarding “ACAGGCAAGUAAUUGGGGAGUGCGGGCGGGGUGU [ARC1617]”, the Kd in data set [1] (deoxy A,G, 2'-OMe C,U, dI at G30,G31, 3'-idT [dI at 30,31 (G parent), 2'-OMe C/U at 2,6,10,13,14,21,23,27,32,34, other A,G deoxy, 3'-inverted dT at 35], DPBS Ca Mg) was 4.1 nM. “ACAGGCAAGUAAUUGGGGAGUGCGGGCGGGGUGU [ARC1609]”: in data set [1] (deoxy A,G, 2'-OMe C,U, dI at G25,G26, 3'-idT [25,26], DPBS Ca Mg), the Kd came out at 4.7 nM. Take “GGGAAAAGCGAAUCAUACACAAGAGCGCUUUAGCGGGUAUAGCACUUUUCAUCUAAUGAANCCGUAGCUCCGCCAGAGACCAACCGAGAA [AMX86-H11]”: the Kd is 367 nM in data set [1] (2'-F C,U, SHMCK, tRNA) and 215 nM in data set [2] (2'-F C,U, tRNA). Take “GGGAAAAGCGAAUCAUACACAAGAUGUUGAACCUCUUGUGCGUCCCGAUGUUUNGCAAUGUGGAGCUCCGCCAGAGACCAACCGAGAA [AMX86-F7]”: the Kd in data set [1] (2'-F all C and U (rRfY), 1X SHMCK, 1 mM Mg, 1 mM Ca, 0.1 mg/mL tRNA, RT) was determined as 147 nM; in data set [2] (2'-F all C and U (rRfY), 1X SHMCK, 0.1 mg/mL tRNA, RT), 106 nM. Consider “ACAGGCAAGUAAUUGGGGAGUGCGGGCGGGGUGU [ARC1605]”, for which the Kd in data set [1] (deoxy A,G, 2'-OMe C,U, dI at G24, 3'-idT [24], DPBS Ca Mg) is 7.5 nM. Turning to “ACAGGCAAGUAAUUGGGGAGUGCGGGCGGGGUGU [ARC1597]”, the equilibrium dissociation constant (Kd) in data set [1] (deoxy A,G, 2'-OMe C,U, dI at G17, 3'-idT [17], DPBS Ca Mg) was 11.2 nM. In turn, “ACAGGCAAGUAAUUGGGGAGUGCGGGCGGGGUGU [ARC1607]” registered a Kd in data set [1] (deoxy A,G, 2'-OMe C,U, dI at G26, 3'-idT [26], DPBS Ca Mg) of 3.3 nM. Regarding “CGCAGGCAAGUAAUUGGGGAGUGCGGGCGGGGUGCG [ARC1467]”, the equilibrium dissociation constant (Kd) in data set [1] (2'-OMe C,U and some stem G, PEG spacers between stem 1 strands and core, 3'-idT, DPBS Ca Mg) was 1.7 nM. For the sequence “ACAGGCAAGUAAUUGGGGAGUGCGGGCGGGGUGU [ARC1596]”, the Kd in data set [1] (deoxy A,G, 2'-OMe C,U, dI at G16, 3'-idT [dI at 16 (parent G), 2'-OMe C,U at 2,6,10,13,14,21,23,27,32,34, deoxy A,G elsewhere, 3'-inverted dT at 35], DPBS Ca …) was 11.1 nM.

Sequence “ACAGGCAAGUAAUUGGGGAGUGCGGGCGGGGUGU [ARC1598]” came in with a Kd in data set [1] (deoxy A,G, 2'-OMe C,U, dI at G18, 3'-idT [18], DPBS Ca Mg) of 4.7 nM. For the sequence “ACAGGCAAGUAAUUGGGGAGUGCGGGCGGGGUGU [ARC1616]”, in data set [1] (deoxy A,G, 2'-OMe C,U, dI at G29,G30, 3'-idT [dI at 29,30 (G parent), 2'-OMe C/U at 2,6,10,13,14,21,23,27,32,34, other A,G deoxy, 3'-inverted dT at 35], DPBS Ca Mg), the Kd is 6.1 nM.
